# Test system: MS2 coat protein
# Experiment: apparent KD of MS2 coat protein, switch ON state; designed switch direction (-1 OFF switch, 1 ON switch): -1; higher = weaker reporter binding
# Details: FMN input: 0 or 200 uM; Eterna round: R93 (includes R88 designs)
# Outline: (§1)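 Designed RNA switches were made by on-chip transcription from Illumina sequencing clusters and then titrated with SNAP-549-labelled MS2 coat protein. Twofold steps ran from 0.7 or 1.5 nM to 3 µM, each lasting 0.8–1.5 h early and 10–20 min late, in 100 mM Tris-HCl pH 7.5, 80 mM KCl, 4 mM MgCl2, without or with constant ligand. Apparent KD is the per-design median of normalised cluster binding-curve fits.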
row,Sequence,apparent KD of MS2 coat protein [nM]
1,"AGCUAGUCAGGAUAUACGAACAUGUAAAAAGACGUGAAGGGACAUGAGGAUCACCCAUGUAGAAGGGACUAGAA [74%, Web mod - With 2 less C's]",46.7
2,AGUCCAGAAGGAUAUACAUAGGUGAUAAAAAAAAAAAAACUACAUGAGGAUCACCCAUGUAGAAGGUCUGGACA [Brourd - Exclusion 2 - Sub 3],37.8
3,AUUAUGUAAGGAUAUGAGUGAACAACAAAACAAAUAACGACUCAGAAGGUACAUGAGGAUCACCCAUGUAUAAA [May 70],28.9
4,AAGUUAUUAGGAUAUACUUGUGCGAUUAAUACGUUGAUAUUACAUGAGGAUCACCCAUGUAGAAGGAAUAAAAA [JR_Exc002_Sub412],24.4
5,AAGAAGUCAGGAUAUGCCAAAGGUCACGAAAGUGACAAAGGGCAGAAGGGACAUGAGGAUCACCCAUGUAAAGA [Opal 2],47.2
6,AGUCAGAGAGGAUAUACAUGAAAAAAAAAAGUUAGAUCCCUACAUGAGGAUCACCCAUGUAGAAGGCUCUGACA [Ex2 Design 151: Sub-opt 15],57.8
7,AUAGUAGGAGGAUAUACAUAGAUACAGAUACAUGUAGACGUACAUGAGGAUCACCCAUGUAGAAGGCCUAUGAA [Mat - Same state - Mayanna Mod - D149],126
8,AAAAUACAUGAGGAUCACCCAUGUGAGGAUAUGAGAAAGGGAAUAAAAUAACCCAAACUCAGAAGGCACAAAAA [Ex 1 May 26],35.9
9,AAGGGACAUGAGGAUCACCCAUGUCAGGAUAUGCUAUGGAAAAAUAAAAUAAAACAUAGCAGAAGGGAUAAAAA [Mat - Exclusion 1 - Eli mod - D32],23
10,AGCUAGUCAGGAUAUACGAAAACGAACGAAGCUGAGAAGGGACAUGAGGAUCACCCAUGUAGAAGGGACUAGCA [Diamond 33],36.4
11,AGCUAGCGAGGAUAUACGAACAUGUCAAAAGACGUGAAGGGACAUGAGGAUCACCCAUGUAGAAGGUGCUAGCA [JL 74% mod 7],31.8
12,AAAAACCUAGGAUAUACAUGAGGAUCACCCAUGUAAAGAAACAAAAAGGGAAAAACAAGUAGAAGGAGGAAGAA [JR_Exc003_Sub1202],16.3
13,"AGUUGGCGAGGAUAUACAUGAGGAUCACCCAUGUAAAAUAAAUAAAAAGGGAAAGAAAGUAGAAGGCGCUGACA [73%, Moding Norbert Elias, 10]",42.4
14,AAAAAACAUGAGGAUCACCCAUGUGAGGAUAUCCUAAAGGGAAUAAAAUAACUCAAAAGGAGAAGGCGCAAAAA [Ex 1 May 31],60.2
15,AGGAAACAUGAGGAUCACCCAUGUGAGGAUAUAGAAAAGAAAAGAAAAGAAAGAAGAACUAGAAGGCACAAGAA [Neheb],31.2
16,UAUGAGCGAGGAUAUGCUUGGGACGUCGUUCUUGCGGCGAGACAUGAGGAUCACCCAUGUAGAAGGCGCGAGCG [Harteesian Twist],17.4
17,AUAGGUCGAGGAUAUACAUGAGGAUCACCCAUGUAAAUAAAUAAAUAAAACUCCACAAGUAGAAGGCGAAAUAA [JR_Exc003_Sub201],28.1
18,AAGAAGGGAGGAUAUACAAAAUAAAAGAAAAGAAAGAAAGAACAUGAGGAUCACCCAUGUAGAAGGCUCAAGAA [Mersekhemre Ined],37.2
19,GAAAAGGUAGGAUAUACGAAAAAAAAGGGUAAAAUAAAUAAACAUGAGGAUCACCCAUGUAGAAGGACCAAAAG [Mat - Exclusion 2 - Tesla mod - D39],30.1
20,AAAUCAGUAGGAUAUACGAUUUGGUACUAGACCGAGGAACCACAUGAGGAUCACCCAUGUAGAAGGACUAGAUA [EX2 Malc#21],17.2
21,AAAAAAGGAGGAUAUACGUACAUGUCGAAAGACGUGAAGGGACAUGAGGAUCACCCAUGUAGAAGGCCUAAAAA [Mat - Exclusion 2 - JL mod - D86],34.8
22,"AAAAAGGGAGGAUAUACAUGAGGAUCACCCAUGUGAAGGACGAAAAAGAGUCUAAAGGGUAGAAGGCCCAAAAA [65%, Moding Exclusion3-cac2, 11]",52.5
23,AACUGACAUGAGGAUCACCCAUGUCAGGAUAUGACUUGACGAAAAAAAACACGUCAUGUCAGAAGGGACAUGGA [Design 89: Sub-opt Z],21.8
24,AACAGUACAGGAUAUACAUGAGGAUCACCCAUGUGAGAAUAAAGUGGCGUACCACAAAGUAGAAGGGUACUGGA [Mat - Exclusion 3 - JL mod - D20],26.7
25,AAGGGACAUGAGGAUCACCCAUGUCAGGAUAUGCUAUGGAAAUAAAAAAUAAAACAUAGCAGAAGGGACACCAA [Mat - Exclusion 1 - Eli mod - D49],24
26,AGUAUGCGAGGAUAUACAUGAGGAUCACCCAUGUGAGAGAUAAAAGUGAGAAAGAAAUGUAGAAGGCGCGUACA [JL Lego Mod 22],98.8
27,AAAAAACAUGAGGAUCACCCAUGUGAGGAUAUCGGUAGUGAGGCUAUAGUGUCAAUAGUGAGAAGGCACAUAAA [Brourd 613 Mod 12 - Jieux - Exclusion 1],31.1
28,"AGUUGGCGAGGAUAUACAUGAGGAUCACCCAUGUAAAAUAAUGAAAAAGUAGGGAAAAGUAGAAGGCGCUGACA [73%, Moding Norbert Elias, 19]",36.2
29,AAAUGACUAGGAUAUACAUGAGGAUCACCCAUGUGUUAAAAUAAAUACACAAAAGAAAGUAGAAGGAGUCAAAA [Ex 3 May 15],22.3

# Test system: MS2 coat protein
# Experiment: apparent KD of MS2 coat protein, switch OFF state (with FMN for OFF switches, without FMN for ON switches); designed switch direction (-1 OFF switch, 1 ON switch): 1; higher = weaker reporter binding
# Details: FMN input: 0 or 200 uM; Eterna round: R93 (includes R88 designs)
# Outline: as §1
row,Sequence,apparent KD of MS2 coat protein [nM]
1,UCAAAACAUGAGGAUCACCCAUGUAGCCUAAAGCGAGGAUAUGGGUUUCUUUAAAGAGUACCAGAAGGCGCCAAAA [Enenala],91.1
2,AACAACAAUAUGAAGGAUAUCCACAACAAGACAUGAGGAUCACCCAUGUAAACUUAGAACAUACAGGAGAAGGUCAAGGGUGAAU [JR_SS002_Sub1204],63.2
3,CGGAGACAUGAGGAUCACCCAUGUGAGAAGAGGCGAGGAUAUCGAAAGAAAGAAGAGAAAUGAGAAGGCGCGAGCC [salish99-SS1-081],39
4,"GACAAACAUGAGGAUCACCCAUGUAGACAUAUGGGAGGAUAUACACAGACGAAAGUCACAGUAGAAGGCCUACAAG [77%, Mat - Mod of Eli - With 5 more C's]",82.4
5,GAAAAACAUGAGGAUCACCCAUGUGUAAAUAUGGGAGGAUAUACAAAGACGGAAGUCAAAGUAGAAGGCCUAAAAG [Mat - Same State 1 - Eli mod - D11],111
6,"AAACCACAUGAGGAUCACCCAUGUGAAAAAAAUACAGGAUAUGGAAACACGAAAGUGAAACCAGAAGGGUGAAAAA [77%, Mat - Mod of Eli, 28]",16.6
7,AAGAAACAUGAGGAUCACCCAUGUGAGAAAAACACAGGAUAUGCAAAAGAAAGAAAGAAAGCAGAAGGGUGAAGAA [Mat - Same State 1 - Tesla mod - 52],74
8,"AGGAAACAUGAGGAUCACCCAUGUAAAAAUAUGGGAGGAUAUACUAGAAGAAACAAAAUAGUAGAAGGCCUAAAAA [75%, Ex sub1, 26]",47.4
9,AAAAGGGCGACACAGGAUAUGUUGACCCUAACAUGAGGAUCACCCAUGUGCAUUUAGGGUCGUGCGCAGAAGGGUGCAGCUCGGA [Enatin],41.8
10,AGAAAUAAAACACAGGAUAUCCAAAAUAAAACAUGAGGAUCACCCAUGUAAAAUAAAAUAAAAUGGGAGAAGGGUGAAAAUAAAG [Mat - Same State 2 - JL mod - D10],39.9
11,AGACAUAACAGAGAGGAUAUCCAAUAGAAAACAUGAGGAUCACCCAUGUGAAAGAUAAUAAAAUGGGAGAAGGCUCACAUACAGA [Topaz 40],30.4
12,CGGAGACAUGAGGAUCACCCAUGUGAGAAGAGGCGAGGAUAUCGAAAGAAAGAAGAGAAACGAGAAGGCGCGAGAA [salish99-SS1-065],32.8
13,CAUCACGCGCCUAAGGAUAUGUCUCACAAGACAUGAGGAUCACCCAUGUAGACUAAAUAAACGAUGCAGAAGGUGGAGCGCAUGC [Usrexe],149
